Several values for one entry are separate records, joined by “and”; a condition that tells them apart may be missing. Identical values can stand only once.

Results on two molecules are retold here after patent US9382316B2, “Humanized anti-EMAP II antibody and use thereof” (Cell & Bio Co., Ltd., dated 2016).

The target of assay [1] is T1, human EMAPII (endothelial monocyte activating polypeptide II) antigen (human).
T1 chain: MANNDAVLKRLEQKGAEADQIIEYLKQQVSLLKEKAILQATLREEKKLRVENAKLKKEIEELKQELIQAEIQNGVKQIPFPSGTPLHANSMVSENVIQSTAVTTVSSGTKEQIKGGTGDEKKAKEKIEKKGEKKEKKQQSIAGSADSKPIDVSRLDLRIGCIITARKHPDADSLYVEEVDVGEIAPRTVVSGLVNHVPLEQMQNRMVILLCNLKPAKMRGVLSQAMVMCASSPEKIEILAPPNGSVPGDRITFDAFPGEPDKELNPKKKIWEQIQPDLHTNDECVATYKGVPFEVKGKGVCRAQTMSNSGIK
In words: ELISA, plate coated with EMAPII antigen, anti-mouse IgG-HRP detection. In general terms: An ELISA detects its analyte on a solid surface through an enzyme-linked reagent.

Assay [2] deals with T1, human EMAPII (endothelial monocyte …). Put plainly: ELISA, plate coated with 2.5 ug/ml EMAPII antigen, anti-human-IgG HRP detection; range over the 3 clones.

B1: mouse anti-EMAPII monoclonal antibody (antibody, V domains shown)
VH: QVQLQQSGAELARPGASVKMSCKASGYTFTSYTMHWVKQRPGQGLEWIGYINPSSGFTNYNQKFKDKATLTADKSSSTAYMQLSSLTSEDSAVYYCASRFAYWGQGTLVTVSA
VL: DIVMTQSHKFMSTSVGDRVSITCKASQDVSTAVAWYQQKPGQSPKLLIFSASYRYTGVPDRFTGSGSGTDFTFTISSVQAEDLAVYYCQQHYSTPYTFGGGTKLEIK
Turning to B1, in assay [1], the EC50 (as a rule, the concentration needed to bring the measured effect to its halfway point) is 0.0209 µg/mL.

B2: mouse/human chimeric antibody BAP015_1 (antibody, V domains shown)
VH: B1 VH
VL: B1 VL
For the molecule B2, the EC50 in assay [2] is 0.0215 µg/mL and 0.0302 µg/mL.
